Sequences and labels used below:
B1: hu94B2 HC1 + LC15 (antibody, V domains shown)
VH: EVQLVQSGAEVKKPGASVKVSCKASGYSLTGYTMNWVRQAPGQGLEWIGLISPYNGVTSYNQKFKGRATLTVDKSTSTAYLELSSLRSEDTAVYYCARQGAYWGQGTLVTVSS
VL: DIVMTQTPLSLPVTPGQPASISCKSSQSLLDSDGKTYLNWYLQKPGQSPQRLIYLVSKLDSGVPDRFSGSGSGTDFTLKISRVEAEDVGVYYCWQGTHFPWTFGQGTKVEIK
B2: hu94B2 HC5 + LC9 (antibody, V domains shown)
VH: EVQLVQSGAEVKKPGASVKVSCKASGYSLTGYTMNWVRQAPGQGLEWIGLISPYNGVTSYNQKFKGRATLTVDTSTSTAYLELSSLRSEDTAVYYCARQGAYWGQGTLVTVSS
VL: DVVMTQTPLSLPVTPGQPASISCKSSQSLLDSDGKTYLNWLLQKPGQSPQRLIYLVSKLDSGVPDRFSGSGSGTDFTLKISRVEAEDVGVYYCWQGTHFPWTFGQGTKVEIK
B3: hu94B2 HC2 + LC9 (antibody, V domains shown)
VH: EVQLVQSGAEVKKPGASVKVSCKASGYSLTGYTMNWVRQAPGQGLEWIGLISPYNGVTSYNQKFKGRVTLTVDKSTSTAYLELSSLRSEDTAVYYCARQGAYWGQGTLVTVSS
VL: DVVMTQTPLSLPVTPGQPASISCKSSQSLLDSDGKTYLNWLLQKPGQSPQRLIYLVSKLDSGVPDRFSGSGSGTDFTLKISRVEAEDVGVYYCWQGTHFPWTFGQGTKVEIK
B4: hu94B2 HC6 + LC11 (antibody, V domains shown)
VH: EVQLVQSGAEVKKPGASVKVSCKASGYSLTGYTMNWVRQAPGQGLEWIGLISPYNGVTSYNQKFKGRVTITVDKSTSTAYLELSSLRSEDTAVYYCARQGAYWGQGTLVTVSS
VL: DVVMTQTPLSLPVTPGQPASISCKSSQSLLDSDGKTYLNWYLQKPGQSPQRLIYLVSKLDSGVPDRFSGSGSGTDFTLKISRVEAEDVGVYYCWQGTHFPWTFGQGTKVEIK
B5: hu94B2 HC4 + LC9 (antibody, V domains shown)
VH: EVQLVQSGAEVKKPGASVKVSCKASGYSLTGYTMNWVRQAPGQGLEWIGLISPYNGVTSYNQKFKGRATLTRDKSTSTAYLELSSLRSEDTAVYYCARQGAYWGQGTLVTVSS
VL: DVVMTQTPLSLPVTPGQPASISCKSSQSLLDSDGKTYLNWLLQKPGQSPQRLIYLVSKLDSGVPDRFSGSGSGTDFTLKISRVEAEDVGVYYCWQGTHFPWTFGQGTKVEIK
B6: hu94B2 HC3 + LC15 (antibody, V domains shown)
VH: EVQLVQSGAEVKKPGASVKVSCKASGYSLTGYTMNWVRQAPGQGLEWIGLISPYNGVTSYNQKFKGRATITVDKSTSTAYLELSSLRSEDTAVYYCARQGAYWGQGTLVTVSS
VL: DIVMTQTPLSLPVTPGQPASISCKSSQSLLDSDGKTYLNWYLQKPGQSPQRLIYLVSKLDSGVPDRFSGSGSGTDFTLKISRVEAEDVGVYYCWQGTHFPWTFGQGTKVEIK
B7: hu94B2 HC5 + LC13 (antibody, V domains shown)
VH: EVQLVQSGAEVKKPGASVKVSCKASGYSLTGYTMNWVRQAPGQGLEWIGLISPYNGVTSYNQKFKGRATLTVDTSTSTAYLELSSLRSEDTAVYYCARQGAYWGQGTLVTVSS
VL: DIVMTQTPLSLPVTPGQPASISCKSSQSLLDSDGKTYLNWLLQKPGQSPQRLIYLVSKLDSGVPDRFSGSGSGTDFTLKISRVEAEDVGVYYCWQGTHFPWTFGQGTKVEIK
B8: hu94B2 HC6 + LC15 (antibody, V domains shown)
VH: EVQLVQSGAEVKKPGASVKVSCKASGYSLTGYTMNWVRQAPGQGLEWIGLISPYNGVTSYNQKFKGRVTITVDKSTSTAYLELSSLRSEDTAVYYCARQGAYWGQGTLVTVSS
VL: DIVMTQTPLSLPVTPGQPASISCKSSQSLLDSDGKTYLNWYLQKPGQSPQRLIYLVSKLDSGVPDRFSGSGSGTDFTLKISRVEAEDVGVYYCWQGTHFPWTFGQGTKVEIK
B9: hu94B2 HC2 + LC15 (antibody, V domains shown)
VH: EVQLVQSGAEVKKPGASVKVSCKASGYSLTGYTMNWVRQAPGQGLEWIGLISPYNGVTSYNQKFKGRVTLTVDKSTSTAYLELSSLRSEDTAVYYCARQGAYWGQGTLVTVSS
VL: DIVMTQTPLSLPVTPGQPASISCKSSQSLLDSDGKTYLNWYLQKPGQSPQRLIYLVSKLDSGVPDRFSGSGSGTDFTLKISRVEAEDVGVYYCWQGTHFPWTFGQGTKVEIK
B10: hu94B2 HC2 + LC11 (antibody, V domains shown)
VH: EVQLVQSGAEVKKPGASVKVSCKASGYSLTGYTMNWVRQAPGQGLEWIGLISPYNGVTSYNQKFKGRVTLTVDKSTSTAYLELSSLRSEDTAVYYCARQGAYWGQGTLVTVSS
VL: DVVMTQTPLSLPVTPGQPASISCKSSQSLLDSDGKTYLNWYLQKPGQSPQRLIYLVSKLDSGVPDRFSGSGSGTDFTLKISRVEAEDVGVYYCWQGTHFPWTFGQGTKVEIK
B11: hu94B2 HC6 + LC13 (antibody, V domains shown)
VH: EVQLVQSGAEVKKPGASVKVSCKASGYSLTGYTMNWVRQAPGQGLEWIGLISPYNGVTSYNQKFKGRVTITVDKSTSTAYLELSSLRSEDTAVYYCARQGAYWGQGTLVTVSS
VL: DIVMTQTPLSLPVTPGQPASISCKSSQSLLDSDGKTYLNWLLQKPGQSPQRLIYLVSKLDSGVPDRFSGSGSGTDFTLKISRVEAEDVGVYYCWQGTHFPWTFGQGTKVEIK
B12: hu94B2 HC4 + LC13 (antibody, V domains shown)
VH: EVQLVQSGAEVKKPGASVKVSCKASGYSLTGYTMNWVRQAPGQGLEWIGLISPYNGVTSYNQKFKGRATLTRDKSTSTAYLELSSLRSEDTAVYYCARQGAYWGQGTLVTVSS
VL: DIVMTQTPLSLPVTPGQPASISCKSSQSLLDSDGKTYLNWLLQKPGQSPQRLIYLVSKLDSGVPDRFSGSGSGTDFTLKISRVEAEDVGVYYCWQGTHFPWTFGQGTKVEIK
B13: hu94B2 HC2 + LC13 (antibody, V domains shown)
VH: EVQLVQSGAEVKKPGASVKVSCKASGYSLTGYTMNWVRQAPGQGLEWIGLISPYNGVTSYNQKFKGRVTLTVDKSTSTAYLELSSLRSEDTAVYYCARQGAYWGQGTLVTVSS
VL: DIVMTQTPLSLPVTPGQPASISCKSSQSLLDSDGKTYLNWLLQKPGQSPQRLIYLVSKLDSGVPDRFSGSGSGTDFTLKISRVEAEDVGVYYCWQGTHFPWTFGQGTKVEIK
B14: hu94B2 HC5 + LC15 (antibody, V domains shown)
VH: EVQLVQSGAEVKKPGASVKVSCKASGYSLTGYTMNWVRQAPGQGLEWIGLISPYNGVTSYNQKFKGRATLTVDTSTSTAYLELSSLRSEDTAVYYCARQGAYWGQGTLVTVSS
VL: DIVMTQTPLSLPVTPGQPASISCKSSQSLLDSDGKTYLNWYLQKPGQSPQRLIYLVSKLDSGVPDRFSGSGSGTDFTLKISRVEAEDVGVYYCWQGTHFPWTFGQGTKVEIK
B15: hu94B2 HC5 + LC11 (antibody, V domains shown)
VH: EVQLVQSGAEVKKPGASVKVSCKASGYSLTGYTMNWVRQAPGQGLEWIGLISPYNGVTSYNQKFKGRATLTVDTSTSTAYLELSSLRSEDTAVYYCARQGAYWGQGTLVTVSS
VL: DVVMTQTPLSLPVTPGQPASISCKSSQSLLDSDGKTYLNWYLQKPGQSPQRLIYLVSKLDSGVPDRFSGSGSGTDFTLKISRVEAEDVGVYYCWQGTHFPWTFGQGTKVEIK
B16: hu94B2 HC7 + LC9 (antibody, V domains shown)
VH: EVQLVQSGAEVKKPGASVKVSCKASGYSLTGYTMNWVRQAPGQGLEWIGLISPYNGVTSYNQKFKGRVTITRDKSTSTAYLELSSLRSEDTAVYYCARQGAYWGQGTLVTVSS
VL: DVVMTQTPLSLPVTPGQPASISCKSSQSLLDSDGKTYLNWLLQKPGQSPQRLIYLVSKLDSGVPDRFSGSGSGTDFTLKISRVEAEDVGVYYCWQGTHFPWTFGQGTKVEIK
B17: hu94B2 HC3 + LC13 (antibody, V domains shown)
VH: EVQLVQSGAEVKKPGASVKVSCKASGYSLTGYTMNWVRQAPGQGLEWIGLISPYNGVTSYNQKFKGRATITVDKSTSTAYLELSSLRSEDTAVYYCARQGAYWGQGTLVTVSS
VL: DIVMTQTPLSLPVTPGQPASISCKSSQSLLDSDGKTYLNWLLQKPGQSPQRLIYLVSKLDSGVPDRFSGSGSGTDFTLKISRVEAEDVGVYYCWQGTHFPWTFGQGTKVEIK
B18: hu94B2 HC3 + LC9 (antibody, V domains shown)
VH: EVQLVQSGAEVKKPGASVKVSCKASGYSLTGYTMNWVRQAPGQGLEWIGLISPYNGVTSYNQKFKGRATITVDKSTSTAYLELSSLRSEDTAVYYCARQGAYWGQGTLVTVSS
VL: DVVMTQTPLSLPVTPGQPASISCKSSQSLLDSDGKTYLNWLLQKPGQSPQRLIYLVSKLDSGVPDRFSGSGSGTDFTLKISRVEAEDVGVYYCWQGTHFPWTFGQGTKVEIK
B19: hu94B2 HC6 + LC9 (antibody, V domains shown)
VH: EVQLVQSGAEVKKPGASVKVSCKASGYSLTGYTMNWVRQAPGQGLEWIGLISPYNGVTSYNQKFKGRVTITVDKSTSTAYLELSSLRSEDTAVYYCARQGAYWGQGTLVTVSS
VL: DVVMTQTPLSLPVTPGQPASISCKSSQSLLDSDGKTYLNWLLQKPGQSPQRLIYLVSKLDSGVPDRFSGSGSGTDFTLKISRVEAEDVGVYYCWQGTHFPWTFGQGTKVEIK

In this assay the target is T1, recombinant human Tau monomer, 2N4R isoform (amino acids 2-441) (human, UniProt P10636-8 2-441).
T1 construct: range 2-441; N-terminal His-tag removed with TEV protease; also called monomeric Tau
T1 sequence (P10636 other isoform, or with tags, fused parts or gaps limits assumed): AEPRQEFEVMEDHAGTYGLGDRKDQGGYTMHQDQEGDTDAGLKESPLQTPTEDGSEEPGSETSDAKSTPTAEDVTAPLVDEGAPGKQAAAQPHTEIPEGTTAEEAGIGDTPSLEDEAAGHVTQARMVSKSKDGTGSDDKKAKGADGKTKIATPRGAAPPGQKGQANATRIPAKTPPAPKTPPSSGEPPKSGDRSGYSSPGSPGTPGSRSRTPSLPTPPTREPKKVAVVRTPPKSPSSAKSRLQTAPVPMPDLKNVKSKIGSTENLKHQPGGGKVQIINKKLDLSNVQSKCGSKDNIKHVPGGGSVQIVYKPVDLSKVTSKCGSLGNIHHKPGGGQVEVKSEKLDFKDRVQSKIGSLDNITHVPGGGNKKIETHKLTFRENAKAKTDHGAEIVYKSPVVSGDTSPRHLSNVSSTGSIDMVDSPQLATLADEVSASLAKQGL
In words: SPR screen, hIgG captured, Tau monomer analyte. From the text:
Antibody 125B11-H3 was humanized onto VH3 and Vκ1 consensus frameworks. The heavy chain graft included murine residues at position 78 (Kabat numbering system). The Vκ1 graft included murine residues in framework positions 43 and 87. The light chain of 113F5-F7 was also humanized onto the Vκ1 framework, with additional murine residues at framework positions 43 and 87. Humanized variant heavy chains (125B11) and light chains (125B11 and 113F5-F7) were co-transfected in multiple combinations and purified in 96-well format as described above. Humanized variants were then screened for affinity for human Tau monomer using the Biacore human IgG capture kit, a Series S CM5 chip and a Biacore T200 instrument. Antibodies were diluted to 2 μg/ml and captured for 15 seconds at 10 μl/min. Association and dissociation of 0, 100 and 500 nM human Tau monomer in HBSP was monitored for 180s and 300s respectively at a flow rate of 40 μl/min. A 1:1 binding model was applied to the results (Table 9).
Variants hu125B11.v17 (HC3+LC1), hu125B11.v26 (HC4+LC2) and hu125B 11.v28 (HC4+LC4) were selected for high-resolution kinetic analysis based on the affinity screen (Table 10). Antibody 94B2-C1 was humanized onto VH1 and Vx2 frameworks. The heavy chain graft also included murine residues at position 28, 29, 67, 69, 71, and 73 (Kabat numbering system). The Vκ2 graft also included murine residues in framework positions 2, 36, and 46. […] Variant hu94B2.v105 (heavy chain variant 94B2.HCl, light chain variant 94B2.LC13) was selected for detailed SPR characterization (Table 11).
As to B1, the equilibrium dissociation constant (Kd) (as a rule, the concentration at which binding is half-saturated) was 0.104 µM.

Turning to B2, the Kd is 0.0027 µM.

In the case of B3, the Kd turned out to be 0.0057 µM.

For B4, the Kd amounted to 0.0701 µM. Turning to B5, the dissociation constant Kd came to 0.0619 µM. On to B6, for which the dissociation constant Kd amounted to 0.0641 µM. For B7, the dissociation constant Kd stood at 0.004 µM. With B8, the equilibrium dissociation constant (Kd) was 0.0741 µM. Under B9 stands 0.0996 µM; under B10, 0.0896 µM. As to B11, the Kd came out at 0.003 µM. For the molecule B12, the Kd is 0.0641 µM.

On to B13, for which the Kd was found to be 0.0074 µM. Under B14 stands 0.0726 µM. Take B15: the Kd was 0.0626 µM. For B16, the dissociation constant Kd is 0.0529 µM. Under B17 stands 0.0038 µM; under B18, 0.002 µM. Under B19 stands 0.0009 µM.

The values are drawn from patent US20190367592A1 (AC IMMUNE, published 2019).
